Measured values reported in paper PMC10151520, “TapA acts as specific chaperone in TasA filament formation by strand complementation” (Proceedings of the National Academy of Sciences of the …, 2023).
One block for each binder: values may come before it.

Assays:
[1] = target: the molecule itself; test: time course of 1H solution NMR signals of the monomer; one-dimensional 1H spectra over time after mixing; TasA at 125 or 250 µM with TapA or TapA variants (e.g. 5:1); legend: 20 °C, pH 7, 150 mM NaCl
[2] = target: the molecule itself; test: SEC; gel filtration of TapA constructs, without DTT
[3] = target: T1, TasA (mature protein, residues 28 to 261) (Bacillus subtilis (strain 168), UniProt P54507); test: AUC (sedimentation velocity); 150 mM NaCl at pH 7 (no ITC response at 50 mM NaCl, pH 7); TapA-induced TasA oligomerization
T1 chain: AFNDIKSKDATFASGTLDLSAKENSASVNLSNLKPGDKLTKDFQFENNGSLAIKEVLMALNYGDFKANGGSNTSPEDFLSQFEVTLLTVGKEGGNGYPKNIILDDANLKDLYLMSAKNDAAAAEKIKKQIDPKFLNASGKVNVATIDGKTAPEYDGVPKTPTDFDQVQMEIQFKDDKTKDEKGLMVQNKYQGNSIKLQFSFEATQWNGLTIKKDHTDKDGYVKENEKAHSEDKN

[4] = target: T2, TasA (mature protein, residues 28 to 261) (Bacillus subtilis, UniProt P54507 28-261); test: AUC; sedimentation velocity of mixtures: 100 µM TasA with TapA (100, 70, 10, 4, 2 or 1 µM), TapA variants (100 µM) or 250 µM peptide; 20 °C, 20 mM Na phosphate pH 7.0, 150 mM NaCl, 40,000 rpm, runs of 17 h; conditions: both partners purified
T2 construct: Used unlabelled or isotope-labelled (2H,13C,15N; 2H,15N; [2-13C]-glycerol) according to the experiment; also called translocation-dependent antimicrobial spore component; source: monomer separated by gel filtration
T2 sequence (looked up): T1 chain

B1: TasA_(28-239) (domain or fragment, Bacillus subtilis, UniProt P54507 28-239, looked up)
chain: AFNDIKSKDATFASGTLDLSAKENSASVNLSNLKPGDKLTKDFQFENNGSLAIKEVLMALNYGDFKANGGSNTSPEDFLSQFEVTLLTVGKEGGNGYPKNIILDDANLKDLYLMSAKNDAAAAEKIKKQIDPKFLNASGKVNVATIDGKTAPEYDGVPKTPTDFDQVQMEIQFKDDKTKDEKGLMVQNKYQGNSIKLQFSFEATQWNGLTIK
binding result [1]: binds

B2: TapA_(66-190) (domain or fragment, B. subtilis 168, UniProt P40949 66-190, looked up)
chain: KNCHYDKRWDQSDLHISDQTDTKGTVCSPFALFAVLENTGEKLKKSKWKWELHKLENARKPLKDGNVIEKGFVSNQIGDSLYKIETKKKMKPGIYAFKVYKPAGYPANGSTFEWSEPMRLAKCDE
notes: TapA of Bacillus subtilis 168, residues 66 to 190; Odd number of cysteines (free C68)
stoichiometry N [2]: 2

binding result [3]: binds
B3: TapA (mature protein, residues 44 to 253) (protein)
chain: AFHDIETFDVSLQTCKDFQHTDKNCHYDKRWDQSDLHISDQTDTKGTVCSPFALFAVLENTGEKLKKSKWKWELHKLENARKPLKDGNVIEKGFVSNQIGDSLYKIETKKKMKPGIYAFKVYKPAGYPANGSTFEWSEPMRLAKCDEKPTVPKKETKSDVKKENETTQKDIPEKTMKEETSQEAVTKEKETQSDQKESGEEDEKSNEADQ

B4: TapA_(60-190) (domain or fragment, B. subtilis 168, UniProt P40949 60-190, looked up)
chain: DFQHTDKNCHYDKRWDQSDLHISDQTDTKGTVCSPFALFAVLENTGEKLKKSKWKWELHKLENARKPLKDGNVIEKGFVSNQIGDSLYKIETKKKMKPGIYAFKVYKPAGYPANGSTFEWSEPMRLAKCDE
notes: TapA of Bacillus subtilis 168, residues 60 to 190; Odd number of cysteines (free C68)
stoichiometry N [2]: 2

binding result [4]: binds
B5: TapA_(44-190) (domain or fragment, B. subtilis 168, UniProt P40949 44-190, looked up)
chain: AFHDIETFDVSLQTCKDFQHTDKNCHYDKRWDQSDLHISDQTDTKGTVCSPFALFAVLENTGEKLKKSKWKWELHKLENARKPLKDGNVIEKGFVSNQIGDSLYKIETKKKMKPGIYAFKVYKPAGYPANGSTFEWSEPMRLAKCDE
notes: also called TapA without residues beyond E190; variant with deleted C terminus
